Paper PMC3799444
Positions count from the first letter of the chain named. Names and notes keep the numbering of the source.

T1: Polλ Q243R (Homo sapiens, UniProt Q9UGP5 1-575, Q243R)
T1 sequence: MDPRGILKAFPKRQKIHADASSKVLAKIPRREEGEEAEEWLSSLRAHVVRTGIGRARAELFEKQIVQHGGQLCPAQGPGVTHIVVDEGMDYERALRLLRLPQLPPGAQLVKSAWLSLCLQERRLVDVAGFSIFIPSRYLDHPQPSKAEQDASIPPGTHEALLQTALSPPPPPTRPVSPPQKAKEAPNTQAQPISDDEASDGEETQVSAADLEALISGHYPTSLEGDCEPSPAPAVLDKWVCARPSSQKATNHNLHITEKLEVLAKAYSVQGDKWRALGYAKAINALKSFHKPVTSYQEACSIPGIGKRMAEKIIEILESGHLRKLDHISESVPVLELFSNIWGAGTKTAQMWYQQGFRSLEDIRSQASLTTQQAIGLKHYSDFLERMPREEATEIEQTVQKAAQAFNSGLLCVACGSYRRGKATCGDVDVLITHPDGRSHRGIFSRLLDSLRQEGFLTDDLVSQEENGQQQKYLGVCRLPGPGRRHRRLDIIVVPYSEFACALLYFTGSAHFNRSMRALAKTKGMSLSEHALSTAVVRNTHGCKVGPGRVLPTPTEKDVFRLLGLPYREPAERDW

T2: Polλ W239Y (Homo sapiens, UniProt Q9UGP5 1-575, W239Y)
T2 sequence: T1 sequence with W239Y, R243Q

B1: 1 nt gap Sp1C/T13C/DG1-P (dsDNA)
DNA 1: GATCACAGTGAGTAC
DNA 2: AGAAGTGTATCTCGTACTCACTGTGATC
DNA 3: AGATACACTTCT
modifications: 5'-phosphate on DG1-P
B2: 5 nt gap FP-P/FP-T5/FP-D (dsDNA)
DNA 1: GGCCACGCAATGTTGACGTTTTTCGACAAGACCTCAGTAT
DNA 2: GGCAGCTTGGATCTTGTCGAAAAACGTCAACATTCGCCTAGGCTTCGGCAGCATATACTGAGGTCTTGTCGAAAAACGTCAACATTGCGTGGCC
DNA 3: GCCGAAGCCTAGGCGAATGTTGACGTTTTTCGACAAGATCCAAGCTGCC
modifications: 5'-phosphate on FT-D

Experiments:
Experiment in all cases: EMSA
[1] = target: Polµ WT (Homo sapiens, UniProt Q9NP87)
[2] = target: T1, Polλ Q243R
[3] = target: T2, Polλ W239Y

Sequence of Polµ WT (Q9NP87 whole entry): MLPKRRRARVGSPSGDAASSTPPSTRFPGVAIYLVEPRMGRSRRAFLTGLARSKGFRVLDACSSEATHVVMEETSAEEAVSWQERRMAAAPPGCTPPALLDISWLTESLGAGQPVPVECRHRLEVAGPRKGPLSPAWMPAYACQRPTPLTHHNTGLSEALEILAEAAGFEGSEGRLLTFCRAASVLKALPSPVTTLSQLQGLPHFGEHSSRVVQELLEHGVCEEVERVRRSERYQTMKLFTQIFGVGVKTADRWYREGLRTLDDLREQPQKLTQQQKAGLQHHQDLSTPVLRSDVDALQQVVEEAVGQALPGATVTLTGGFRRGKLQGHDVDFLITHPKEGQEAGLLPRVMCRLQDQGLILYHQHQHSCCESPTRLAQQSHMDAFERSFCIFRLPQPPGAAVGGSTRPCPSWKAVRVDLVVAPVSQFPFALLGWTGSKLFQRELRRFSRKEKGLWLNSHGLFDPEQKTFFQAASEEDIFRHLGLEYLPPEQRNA

Row | Binder | binding result [1] | binding result [2] | binding result [3]
1 | B1 | binds | – | –
2 | B2 | – | binds | binds
